Consider two molecules from patent publication US20250340631A1 (HARBOUR BIOMED SHANGHAI, published 2025).

Assay [1] deals with T1, human CD3 on Jurkat cells (human, UniProt P07766 23-207).
T1 construct: whole, on cells; on cells it stands in the whole CD3/TCR complex; also called CD3-expressing cells
Nature of the assay: FACS on Jurkat cells (CD3).
Method: (§1) Antibodies were assayed for binding affinity by FACS. Test cells include HEK293/hCLDN18.2, HEK293/hCLDN18.1, NUGC4_D8 and Jurkat cells. […] The cell density was adjusted to 10⁶ cells/mL, and 50 μL of the cell suspension was added to each well of a 96-well plate. Antibodies were diluted to different concentrations with FACS buffer, and 50 μL of the antibody dilution was added to each well of the 96-well plate. After 2 h of incubation at 4° C., the plate was washed twice with FACS buffer. […] After 1 h of incubation at 4° C., the plate was washed twice with FACS buffer. The cells were resuspended in fixative solution, and then the fluorescence of the cells was monitored using an FACS instrument (ACEA NovoCyte).

Assay [2] has as its target T2, human CLDN18.2 (human).
T2 construct: the HEK293 line was made with a GenScript plasmid; also called hCLDN18.2
Put plainly: FACS on NUGC4_D8 cells.

For assay [3], the target named is T3, Human CD16a(V) (human, UniProt P08637 17-208). Put plainly: BLI (Octet), antibody on FAB2G sensor, steady state fit.
Method: (§2) The binding kinetics between proteins and antibodies was analyzed by the Biolayer Interferometry (BLI) technique using an Octet Red 96e (Fortebio) system. The rotation speed was set at 1000 rpm for the system. […] After equilibrated in the buffer for 120 s, the FAB2G sensor was allowed to bind to 2-fold serially diluted human Fc receptor protein. Finally, the FAB2G sensor was immersed in a 10 mM glycine-hydrochloric acid solution at pH 1.5 for regeneration to elute the proteins bound to the sensor. The affinity assays of antibodies for FcRn were performed under the conditions of both pH 6.0 buffer and pH 7.4 buffer. […] For the interactions of fast binding and fast dissociation, the “steady state” method was selected to fit the data to obtain KD(M) values.
For assay [4], the target named is T2, human CLDN18.2. Nature of the assay: competition FACS on HEK293/hCLDN18.2 cells; competitor 10 nM biotinylated PR000400.
Method: (§3) This example is to study the binding of anti-human CLDN18.2 bispecific antibodies to the epitope region of a human CLDN18.2 antigen. Competitive binding experiments were performed at the cellular level using human CLDN18.2-overexpressing HEK293/hCLDN18.2 cells. […] The mixture was well mixed and incubated at 4° C. for 30 min. 25 μL of the corresponding serially diluted non-biotinylated anti-human CLDN18.2 antibody was added. The mixture was well mixed and incubated at 4° C. for 1 h. The cells in each well were washed twice with 200 μL of pre-cooled FACS buffer (2% BSA in DPBS) and centrifuged at 500 g at 4° C. for 5 min, and then the supernatant was discarded. A fluorescent secondary antibody (Jackson ImmunoResearch, 016-540-084, 1:500) was added. The mixture was incubated at 4° C. in the absence of light for 1 h. The cells in each well were washed twice with 200 μL of pre-cooled FACS buffer (2% BSA in DPBS) and centrifuged at 500 g at 4° C. for 5 min, and then the supernatant was discarded. Finally, the cells in each well were resuspended in 200 μL of pre-cooled FACS buffer, and the fluorescence signal values were read using a ACEA_NovoCyte.
The target of another assay is Human FcRn (human, UniProt P55899 24-297; P61769 21-119). Nature of the assay: BLI (Octet), antibody on FAB2G sensor, pH 6.0, 1:1 global fit; pH 6.0; 400-25 nM. For orientation: Biolayer interferometry detects binding as a change in optical thickness at a sensor tip.
Assay [5] addresses CLDN18.2 of SNU620 cells (methionine to leucine at amino acid 149) (human, UniProt P56856-2 1-261). Nature of the assay: cell-based or functional assay.
Assay [6] addresses T2, human CLDN18.2. Put plainly: cell-based or functional assay.
Assay [7] concerns the target T4, Human CD64 (human, UniProt P12314 16-288, limits assumed).
T4 construct: bought recombinant protein
Nature of the assay: BLI (Octet), antibody on FAB2G sensor, 1:1 global fit.
Method: as §2

Assay [8] addresses T2, human CLDN18.2. Put plainly: competition FACS on HEK293/hCLDN18.2 cells; competitor 200 nM biotinylated PR004549.
Method: as §3
Assay [9] concerns the target T2, human CLDN18.2. Nature of the assay: FACS on HEK293/hCLDN18.2 cells.
Another assay deals with Human CD16a(F) (human, UniProt P08637 17-208). Put plainly: BLI (Octet), antibody on FAB2G sensor.
The next assay deals with T5, Human CD32a(H) (human, UniProt P12318 36-218, limits assumed).
T5 sequence (looked up): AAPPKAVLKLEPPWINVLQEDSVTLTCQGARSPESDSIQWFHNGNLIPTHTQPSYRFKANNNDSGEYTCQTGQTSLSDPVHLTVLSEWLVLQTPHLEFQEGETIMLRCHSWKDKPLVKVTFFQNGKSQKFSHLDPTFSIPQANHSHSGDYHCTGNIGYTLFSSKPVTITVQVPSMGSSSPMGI
Nature of the assay: BLI (Octet), antibody on FAB2G sensor.

The target of another assay is T6, Human CD32b (human, UniProt P31994 46-217, limits assumed).
T6 sequence (looked up): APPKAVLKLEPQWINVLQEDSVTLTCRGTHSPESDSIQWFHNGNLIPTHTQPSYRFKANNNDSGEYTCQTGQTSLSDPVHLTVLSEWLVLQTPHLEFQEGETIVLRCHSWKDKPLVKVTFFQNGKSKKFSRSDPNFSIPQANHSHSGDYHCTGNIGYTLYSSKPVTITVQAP
Nature of the assay: BLI (Octet), antibody on FAB2G sensor.

Assay [10] has as its target T7, Human CD3E (Acro, CDE-H5223) (human, UniProt P07766 23-126, biotinylated (mixed with biotin 1:3)).
T7 construct: also called Human CD3Ec
Nature of the assay: BLI (Octet), biotinylated CD3 on SA sensor, 1:1 global fit.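 Further: antibodies applied as analyte in 2-fold serial dilutions, with a 180 s association phase followed by a 300 s dissociation phase.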
Method: (§4) The binding kinetics between proteins and antibodies was analyzed by the Biolayer Interferometry (BLI) technique using an Octet Red 96e (Fortebio) system. Human CD3E (Acro, CDE-H5223), cynomolgus CD3E (Acro, CDE-C5226) and murine CD3E (Acro, CDE-M5256) were mixed with biotin (Thermo Scientific, A39257) in a molar ratio of 1:3. The mixture was incubated at 4° C. overnight, and then excess biotin was removed to obtain biotinylated CD3E. The rotation speed was set at 1000 rpm for the system. […] After being equilibrated in the buffer for 120 s, the SA sensor with captured CD3 was allowed to bind to 2-fold serially diluted antibodies. […] Finally, the SA sensor was immersed in a 10 mM glycine-hydrochloric acid solution at pH 1.5 for regeneration to elute the antibodies bound to the sensor. […] For the interactions of fast binding and fast dissociation, the “steady state” method was selected to fit the data to obtain KD(M) values.

The target of assay [11] is T8, Cynomolgus CD3E (Acro, CDE-C5226) (cynomolgus, UniProt Q95LI5 22-117, biotinylated (mixed with biotin 1:3)).
T8 sequence (looked up): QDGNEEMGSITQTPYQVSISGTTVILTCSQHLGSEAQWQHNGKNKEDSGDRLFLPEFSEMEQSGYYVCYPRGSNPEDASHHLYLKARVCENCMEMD
Described as above.
Method: as §4

Assay [12] deals with T3, Human CD16a(V). Nature of the assay: BLI (Octet), antibody on FAB2G sensor.
Assay [13] has as its target T4, Human CD64. Put plainly: BLI (Octet), antibody on FAB2G sensor.
Assay [14] addresses T1, human CD3 on Jurkat cells. Nature of the assay: FACS on Jurkat cells.
Method: as §1

T4 sequence (P12314 16-288 limits assumed): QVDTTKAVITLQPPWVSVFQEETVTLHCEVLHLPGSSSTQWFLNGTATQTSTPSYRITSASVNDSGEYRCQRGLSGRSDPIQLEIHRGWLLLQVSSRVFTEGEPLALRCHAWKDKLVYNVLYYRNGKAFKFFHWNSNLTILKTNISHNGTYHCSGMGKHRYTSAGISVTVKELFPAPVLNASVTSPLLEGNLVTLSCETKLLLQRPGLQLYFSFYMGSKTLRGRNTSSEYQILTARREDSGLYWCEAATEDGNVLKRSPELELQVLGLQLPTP
Chain of Human FcRn (P55899 24-297 limits assumed, chain 1 of 2): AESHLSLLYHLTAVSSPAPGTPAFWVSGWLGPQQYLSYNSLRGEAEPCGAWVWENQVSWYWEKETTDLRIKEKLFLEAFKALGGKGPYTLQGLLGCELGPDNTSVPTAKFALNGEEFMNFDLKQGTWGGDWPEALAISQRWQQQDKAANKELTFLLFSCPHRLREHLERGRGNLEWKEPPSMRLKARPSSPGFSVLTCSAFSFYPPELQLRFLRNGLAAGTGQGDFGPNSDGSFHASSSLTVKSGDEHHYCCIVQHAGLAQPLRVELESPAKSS
Chain of Human FcRn (P61769 21-119 limits assumed, chain 2 of 2): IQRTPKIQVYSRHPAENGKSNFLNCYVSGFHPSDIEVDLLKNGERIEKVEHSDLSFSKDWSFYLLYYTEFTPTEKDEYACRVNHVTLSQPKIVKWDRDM
T7 sequence (P07766 23-126 limits assumed): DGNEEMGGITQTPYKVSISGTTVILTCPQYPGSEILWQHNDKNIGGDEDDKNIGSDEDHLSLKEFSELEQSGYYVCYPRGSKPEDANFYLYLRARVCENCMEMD
Chain of Human CD16a(F) (P08637 17-208 limits assumed): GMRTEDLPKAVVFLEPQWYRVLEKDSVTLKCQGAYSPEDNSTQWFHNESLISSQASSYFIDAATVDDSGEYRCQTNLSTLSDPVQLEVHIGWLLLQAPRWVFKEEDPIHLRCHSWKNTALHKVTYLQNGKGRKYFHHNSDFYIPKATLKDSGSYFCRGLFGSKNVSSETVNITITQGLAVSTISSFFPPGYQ
T1 sequence (P07766 23-207): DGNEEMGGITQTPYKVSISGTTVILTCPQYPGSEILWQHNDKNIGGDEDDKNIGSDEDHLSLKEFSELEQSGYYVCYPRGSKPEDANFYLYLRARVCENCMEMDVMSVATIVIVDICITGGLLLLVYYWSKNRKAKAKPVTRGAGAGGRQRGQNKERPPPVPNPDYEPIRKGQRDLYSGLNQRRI
T3 sequence (P08637 17-208 F176V limits assumed): as the sequence (P08637 17-208 limits assumed) above, with F160V counted along it
Chain of CLDN18.2 of SNU620 cells (methionine to leucine at amino acid 149) (P56856 other isoform, or with tags, fused parts or gaps limits assumed): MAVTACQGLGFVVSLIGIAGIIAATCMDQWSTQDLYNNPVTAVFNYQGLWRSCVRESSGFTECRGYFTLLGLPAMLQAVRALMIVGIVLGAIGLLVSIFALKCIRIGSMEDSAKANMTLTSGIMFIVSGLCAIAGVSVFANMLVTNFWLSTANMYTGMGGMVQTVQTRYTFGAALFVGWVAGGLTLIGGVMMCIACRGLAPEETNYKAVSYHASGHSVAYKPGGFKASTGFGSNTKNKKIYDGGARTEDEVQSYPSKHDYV
Method for Human FcRn: as §2

B1: PR005397 (bispecific antibody, human IgG1, lambda, L234A L235A)
chain: EVQLVESGGGLVQPGGSLRLSCAASGFTFSSYWMHWVRQVPGKGLVWVSRISSTGSRTIYADSVKGRFTISRDNAKNTLYLQMNSLRAEDTAVYYCARGEDHDILTGYPIRGQGTTVTVSSGGGGSGGGGSGGGGSEVQLVESGGGLVQPGGSLRLSCAASGFTFSSYWMHWVRQVPGKGLVWVSRISSTGSRTIYADSVKGRFTISRDNAKNTLYLQMNSLRAEDTAVYYCARGEDHDILTGYPIRGQGTTVTVSSASEPKSSDKTHTCPPCPAPEAAGGPSVFLFPPKPKDTLMISRTPEVTCVVVDVSHEDPEVKFNWYVDGVEVHNAKTKPREEQYNSTYRVVSVLTVLHQDWLNGKEYKCKVSNKALPAPIEKTISKAKGQPREPQVCTLPPSREEMTKNQVSLSCAVKGFYPSDIAVEWESNGQPENNYKTTPPVLDSDGSFFLVSKLTVDKSRWQQGNVFSCSVMHEALHNHYTQKSLSLSPGK
heavy: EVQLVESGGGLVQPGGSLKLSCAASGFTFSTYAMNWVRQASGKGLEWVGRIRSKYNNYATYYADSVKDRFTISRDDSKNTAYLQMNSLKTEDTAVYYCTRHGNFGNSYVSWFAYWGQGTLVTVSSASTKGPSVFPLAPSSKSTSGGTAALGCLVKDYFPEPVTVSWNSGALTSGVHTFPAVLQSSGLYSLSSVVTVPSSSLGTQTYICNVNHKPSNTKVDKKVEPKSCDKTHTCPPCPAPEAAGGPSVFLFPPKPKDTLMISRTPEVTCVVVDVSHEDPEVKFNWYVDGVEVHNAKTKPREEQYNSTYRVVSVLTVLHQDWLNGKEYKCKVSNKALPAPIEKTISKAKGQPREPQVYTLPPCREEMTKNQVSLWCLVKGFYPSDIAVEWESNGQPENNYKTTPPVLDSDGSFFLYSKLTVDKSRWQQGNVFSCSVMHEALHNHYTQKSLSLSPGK
light: QAVVTQEPSLTVSPGGTVTLTCRSSTGAVTTSNYANWVQQKPGQAPRGLIGGTNKRAPWTPARFSGSLLGDKAALTLLGAQPEDEAEYFCALWYSNLWVFGGGTKLTVLGQPKAAPSVTLFPPSSEELQANKATLVCLISDFYPGAVTVAWKADSSPVKAGVETTTPSKQSNNKYAASSYLSLTPEQWKSHRSYSCQVTHEGSTVEKTVAPTECS
notes: structure 1; CD3 Fab from PR003886, CLDN18.2 VH from PR007246; LALA
Take B1: the binding result is “binds” in assay [1], “no binding (tested: 10000-625 nM)” with Human CD16a(F), “no binding (tested: 10000-625 nM)” with Human CD32a(H) and “no binding (tested: 10000-625 nM)” in the assay with Human CD32b. For the same molecule, the EC50 in the assay with human CLDN18.2 [2] came out at 0.0275 µM; with human CLDN18.2 [9], 0.0128 µM. In addition, the values for the Kd with Human CD16a(V) [3], with Human FcRn and in the assay with Human CD64 [7] were 1.8 µM, 0.182 µM and 0.0506 µM, respectively. The values for the IC50 with human CLDN18.2 [4] and in the assay with human CLDN18.2 [8] were 0.0818 µM and 0.0675 µM, respectively. In addition, the “Maximum inhibition rate (%)” value with human CLDN18.2 [4] worked out at 98.4%; with human CLDN18.2 [8], 48%. Besides, the koff worked out at 0.0586 s⁻¹ in the assay with Human FcRn and 0.0438 s⁻¹ in the assay with Human CD64 [7]. In addition, the kon with Human FcRn is 322000 M⁻¹ s⁻¹; in the assay with Human CD64 [7], 866000 M⁻¹ s⁻¹. For the same molecule, the “TDCC, Titer EC50 (pM), SNU620” value in assay [5] was found to be 31.6 pM. In the assay with human CLDN18.2 [6], the “TDCC, Titer EC50 (pM), NUGC4_D8” value is 10 pM.

B2: PR006293 (bispecific antibody, human IgG1, lambda)
chain: EVQLVESGGGLVQPGGSLRLSCAASGFTFSSYWMHWVRQVPGKGLVWVSRISSDASRTIYADSVKGRFTISRDNAKNTLYLQMNSLRAEDTAVYYCARGEDHDILTGYPIRGQGTTVTVSSGGGGSGGGGSGGGGSEVQLVESGGGLVQPGGSLRLSCAASGFTFSSYWMHWVRQVPGKGLVWVSRISSDASRTIYADSVKGRFTISRDNAKNTLYLQMNSLRAEDTAVYYCARGEDHDILTGYPIRGQGTTVTVSSASEPKSSDKTHTCPPCPAPEAAGAPSVFLFPPKPKDTLMISRTPEVTCVVVDVSHEDPEVKFNWYVDGVEVHNAKTKPREEQYNSTYRVVSVLTVLHQDWLNGKEYKCKVSNKALPAPIEKTISKAKGQPREPQVCTLPPSREEMTKNQVSLSCAVKGFYPSDIAVEWESNGQPENNYKTTPPVLDSDGSFFLVSKLTVDKSRWQQGNVFSCSVMHEALHNHYTQKSLSLSPGK
heavy: EVQLLESGGGLVQPGGSLRLSCAASGFTFSTYAMNWVRQAPGKGLEWVSRIRSKYNNYATYYADSVKDRFTISRDDSKSTLYLQMNSLRAEDTAVYYCVRHGNFGNSYVSWFAYWGQGTLVTVSSASTKGPSVFPLAPSSKSTSGGTAALGCLVKDYFPEPVTVSWNSGALTSGVHTFPAVLQSSGLYSLSSVVTVPSSSLGTQTYICNVNHKPSNTKVDKKVEPKSCDKTHTCPPCPAPEAAGAPSVFLFPPKPKDTLMISRTPEVTCVVVDVSHEDPEVKFNWYVDGVEVHNAKTKPREEQYNSTYRVVSVLTVLHQDWLNGKEYKCKVSNKALPAPIEKTISKAKGQPREPQVYTLPPCREEMTKNQVSLWCLVKGFYPSDIAVEWESNGQPENNYKTTPPVLDSDGSFFLYSKLTVDKSRWQQGNVFSCSVMHEALHNHYTQKSLSLSPGK
light: QAVVTQEPSLTVSPGGTVTLTCRSSTGAVTTSNYANWVQQKPGQAPRGLIGGTNKRAPWTPARFSGSLLGDKAALTLLGAQPEDEAEYFCALWYSNLWVFGGGTKLTVLGQPKAAPSVTLFPPSSEELQANKATLVCLISDFYPGAVTVAWKADSSPVKAGVETTTPSKQSNNKYAASSYLSLTPEQWKSHRSYSCQVTHEGSTVEKTVAPTECS
notes: structure 1; CD3 Fab from PR001848, CLDN18.2 VH from PR007245; AAA
In the case of B2, the EC50 stood at 0.078 µM with human CLDN18.2 [2] and 0.065 µM in assay [14]. For the same molecule, the Kd amounted to 0.0317 µM in [10], 0.0324 µM in assay [11] and 0.217 µM with Human FcRn. In addition, the koff stood at 0.00216 s⁻¹ in assay [10], 0.00197 s⁻¹ in assay [11] and 0.0632 s⁻¹ with Human FcRn. For the same molecule, the on-rate (kon) was 68100 M⁻¹ s⁻¹ in assay [10], 60700 M⁻¹ s⁻¹ in assay [11] and 291000 M⁻¹ s⁻¹ in the assay with Human FcRn. The IC50 turned out to be 0.132 µM with human CLDN18.2 [4] and 0.1 µM in the assay with human CLDN18.2 [8]. The results for the “Maximum inhibition rate (%)” value in the assay with human CLDN18.2 [4] and in the assay with human CLDN18.2 [8] were 97.8% and 48%, respectively. In addition, the “TDCC, Titer EC50 (pM), SNU620” value in assay [5] was 18.5 pM. Further, the “TDCC, Titer EC50 (pM), IM95” value with human CLDN18.2 [6] is 460 pM. In addition, in the assay with human CLDN18.2 [6], the “TDCC, Titer EC50 (pM), NUGC4_D8” value was found to be 87 pM. Also, the binding result with Human CD16a(F) is on record as “no binding (tested: 10000-625 nM)”; in the assay with Human CD32a(H), “no binding (tested: 10000-625 nM)”; in the assay with Human CD16a(V) [12] it was “no binding (tested: 6000-375 nM)”; with Human CD32b, “no binding (tested: 10000-625 nM)”; with Human CD64 [13], “no binding (tested: 800-50 nM)”.

As a reminder, the EC50 is the concentration that produces a half-maximal response. Read a high EC50 as a need for much substance. By Kd is commonly meant a measure of binding affinity in units of concentration. The low end stands for tighter binding, the high end for weaker binding. By IC50 is commonly meant the concentration at which inhibition is half-maximal. Low values mean greater potency, high ones weaker potency. The koff is a measure of how fast the partners let go of each other. Low values mean a long-lived complex, high ones a short-lived complex. For orientation: kon means a measure of how fast the partners come together. Lower therefore signals slower complex formation.
